Assay results from article PMC4715444, “A simple and rapid method for measuring α-D-phosphohexomutases activity by using anion-exchange chromatography coupled with an electrochemical detector” (PeerJ, 2016).

Substrate: O=P(O)(O)O[C@H]1O[C@H](CO)[C@@H](O)[C@H](O)[C@H]1O
Experiment: HPAEC-PAD, direct detection of hexose phosphates
Assay type: biochemical, Arabidopsis thaliana
Conditions: 20 mM PBS pH 7.0, 10 mM MgSO4, 20 µM glucose-1,6-bisphosphate, 30 °C
Excerpt: HPAEC-PAD, direct detection of hexose phosphates on AtAGM

B1: AtAGM (Arabidopsis thaliana) (protein)
chain: MDEIQIASILKSSELFPIPQGVKLSYGTAGFRGDAKLLESTVYRVGILSALRSLKLGSATVGLMITASHNKVSDNGIKVSDPSGFMLSQEWEPFADQIANASSPEELVSLIRKFMEKEEIAIGENNKGAEVWLGRDTRPSGESLLRAGEIGVGSILGSVAIDIGILTTPQLHWMVRAKNKGLKATENDYFENLSTSFRCLIDLIPSSGNDKLEISKLLVDGANGVGGQKIEKLRGSLSNLDVEIRNTGRDGGVLNEGVGADFVQKEKVLPVGFGFKDVGMRCASLDGDADRLVYFYIPSDSSEKVELLDGDKILSLFALFIKEQLNALEDDEERKQSRLGVVQTAYANGASTDYLKHLGLDVVFAKTGVKHLHEKAAEFDIGIYFEANGHGTILFSESFLSWLVSKQKDLTAKGQGGSEEHKAVSRLMAVSNLINQAVGDALSGVLLVEVILQHLGWSIEKWNELYKDLPSRQIKVEVPDRTAVVTTSEETEALRPMGIQDAINSEIKKYSRGRAFIRPSGTEDVVRVYAEASTQEDADSLANSVAQLVKSFLGSS
In the case of B1, the Km is reported as 679.18 ± 156.40 µM, the Vmax is reported as 0.137 µmol/min and the kcat is reported as 40.4 s⁻¹.
